Source: article PMC4208761, “Molecular Insights into the Interaction between Plasmodium falciparum Apical Membrane Antigen 1 and an Invasion-Inhibitory Peptide” (PLoS ONE, 2014)
Entries after “also recorded” stand apart in the source; their conditions may differ. No end group written: not given here.

T1: Domain I+II of 3D7 PfAMA1 (residue 104-442), immobilised for SPR (Plasmodium falciparum 3D7, UniProt Q7KQK5 104-442)
T1 sequence (looked up): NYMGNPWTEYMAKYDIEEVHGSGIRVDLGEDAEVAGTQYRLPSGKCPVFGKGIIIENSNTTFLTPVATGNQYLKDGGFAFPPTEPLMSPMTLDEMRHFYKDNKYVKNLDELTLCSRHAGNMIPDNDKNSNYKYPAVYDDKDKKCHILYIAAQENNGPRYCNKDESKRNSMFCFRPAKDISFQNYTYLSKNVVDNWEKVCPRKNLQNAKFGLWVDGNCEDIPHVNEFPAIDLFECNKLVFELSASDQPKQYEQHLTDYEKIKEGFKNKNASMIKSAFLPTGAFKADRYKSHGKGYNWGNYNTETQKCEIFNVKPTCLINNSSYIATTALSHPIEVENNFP

T2: Fractionally deuterated 3D7 PfAMA1 (residue 104-442), His6 tag cleaved, for NMR (Plasmodium falciparum 3D7, UniProt Q7KQK5 104-442, randomly fractionally deuterated (f-2H))
T2 sequence (looked up): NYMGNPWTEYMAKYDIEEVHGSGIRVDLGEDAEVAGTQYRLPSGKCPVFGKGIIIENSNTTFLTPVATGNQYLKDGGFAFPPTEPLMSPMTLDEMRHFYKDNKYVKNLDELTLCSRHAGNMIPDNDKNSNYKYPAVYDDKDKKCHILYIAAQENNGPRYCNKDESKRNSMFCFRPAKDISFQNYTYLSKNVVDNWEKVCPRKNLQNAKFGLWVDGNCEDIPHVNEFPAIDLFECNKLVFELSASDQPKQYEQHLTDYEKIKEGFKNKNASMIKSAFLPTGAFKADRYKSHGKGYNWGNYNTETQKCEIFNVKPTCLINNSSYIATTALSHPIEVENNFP


target: T1, Domain I+II of 3D7 PfAMA1 (residue …); experiment: SPR; conditions: both partners purified

Row | Molecule | stoichiometry N
1 | VFAEFLPLFSKFGSRMHILK [Native R1 peptide] | 1

target: T1, Domain I+II of 3D7 PfAMA1 (residue …); experiment: SPR; conditions: both partners purified; remark: another data set of the same source

Row | Molecule | Kd [µM]
2 | VFAEFLPLFSKFGSRMHILK [Native R1 peptide] | 0.11
3 | Ac-FLPLFSKFGSRM-NH2 (source: synthetic peptide (Mimotopes)) [R1_(5-16)] | 0.99
4 | Ac-EFLPLFSKFGSRMH-NH2 (source: synthetic peptide (Mimotopes)) [R1_(4-17)] | 0.88
5 | Ac-FLPLFSKFGSR-NH2 (source: synthetic peptide (Mimotopes)) [R1_(5-15)] | 4.6

target: T1, Domain I+II of 3D7 PfAMA1 (residue …); experiment: SPR; conditions: both partners purified; remark: another data set of the same source

Row | Molecule | Kd [µM]
6 | Ac-FLPLFSKFGSRM-NH2 (source: synthetic peptide (Mimotopes)) [R1_(5-16)] | 1.8
7 | Ac-FLPLFSKAGSRM-NH2 (source: synthetic peptide (Mimotopes)) [R1_(5-16) F12A] | 87
8 | Ac-FLPLFSKFASRM-NH2 (source: synthetic peptide (Mimotopes)) [R1_(5-16) G13A] | 39
9 | Ac-FLPLFSAFGSRM-NH2 (also called Lys11Ala mutant; source: synthetic peptide (Mimotopes)) [R1_(5-16) K11A] | 27
10 | Ac-FAPLFSKFGSRM-NH2 (source: synthetic peptide (Mimotopes)) [R1_(5-16) L6A] | 60
11 | Ac-FLPLFSKFGSRA-NH2 (source: synthetic peptide (Mimotopes)) [R1_(5-16) M16A] | 2.7
12 | Ac-FLALFSKFGSRM-NH2 (source: synthetic peptide (Mimotopes)) [R1_(5-16) P7A] | 61
13 | Ac-FLPLFSKFGSAM-NH2 (source: synthetic peptide (Mimotopes)) [R1_(5-16) R15A] | > 100
14 | Ac-FLPLFAKFGSRM-NH2 (source: synthetic peptide (Mimotopes)) [R1_(5-16) S10A] | 4.8
15 | Ac-FLPLFSKFGARM-NH2 (source: synthetic peptide (Mimotopes)) [R1_(5-16) S14A] | 3.3

target: T2, Fractionally deuterated 3D7 PfAMA1 …; experiment: NMR titration; conditions: both partners purified

Row | Molecule | stoichiometry N
16 | VFAEFLPLFSKFGSRMHILK (not fully specified, source: E. coli BL21 (DE3), thioredoxin fusion from pET32a, purified (HisTrap, enterokinase cleavage, HiTrap QFF, RP-HPLC)) [Recombinant f-2H, u-13C, 15N-labelled R1 peptide] | 1

target: T3, 3D7 PfAMA1_104–442 (Plasmodium falciparum, UniProt Q7KQK5); experiment: SPR analysis of peptides binding to immobilized AMA1 (Biacore T200); conditions: SPR alanine scan, 1% DMSO in HBS-EP, 25°C
T3 construct: His6 (TEV-cleavable); made in house
Description: A Biacore T200 biosensor instrument was used to measure the affinity of the interaction of peptides with 3D7 PfAMA1_104–442. AMA1 was immobilized onto a CM5 chip as described. Surface plasmon resonance (SPR) experiments were performed at 25°C using HBS-EP (10 mM HEPES, 150 mM NaCl, 3.4 mM EDTA, and 0.05% surfactant P20, pH 7.4) as the running buffer either with (alanine scanning mutagenesis study) or without (truncation study) 1% DMSO. All peptide samples were prepared in the appropriate running buffer. To generate the peptide binding data, peptide at concentrations ranging from 10 nM to 10 µM was injected over immobilized AMA1 at a constant flow rate of 60 µL/min for 1.5 min; peptide dissociation was monitored by flowing running buffer at 60 µL/min for 5 min. The surface was regenerated after each cycle by injecting glycine/HCl at pH 2.0. Sensorgrams were first zeroed on the y-axis and then x-aligned at the start of the injection. Bulk refractive index changes were eliminated by subtracting the reference flow cell responses. For kinetic analysis, ka and kd were determined from the processed data sets by globally fitting to a 1∶1 binding model. For rapidly associating/dissociating truncated peptides, K D was determined by fitting to a steady-state affinity model using a fixed Rmax that was calculated based on the response of R1_5–16.

Row | Molecule | fold reduction in affinity for AMA1 relative to R1_5–16
17 | Ac-FAPLFSKFGSRM-NH2 [R1_5–16 L6A] | 33 fold
18 | Ac-FLALFSKFGSRM-NH2 [R1_5–16 P7A] | 35 fold
19 | Ac-FLPLFAKFGSRM-NH2 [R1_5–16 S10A] | less than 3 fold
20 | Ac-FLPLFSAFGSRM-NH2 [R1_5–16 K11A] | 15 fold
21 | Ac-FLPLFSKAGSRM-NH2 [R1_5–16 F12A] | 48 fold
22 | Ac-FLPLFSKFASRM-NH2 [R1_5–16 G13A] | 21 fold
23 | Ac-FLPLFSKFGARM-NH2 [R1_5–16 S14A] | less than 3 fold
24 | Ac-FLPLFSKFGSRA-NH2 [R1_5–16 M16A] | less than 3 fold

same assay, conditions: SPR truncation study, no DMSO, 25°C

Row | Molecule | reduction of binding affinity relative to native R1 [fold]
25 | Ac-EFLPLFSKFGSRMH-NH2 [R1_4–17] | ~10
26 | Ac-FLPLFSKFGSRM-NH2 [R1_5–16] | ~10

same assay, conditions: SPR truncation study, no DMSO, 25°C; relative to R1_5–16

Row | Molecule | further reduction in K D (affinity) on truncation of R1_5–16 to the 11-residue peptide [fold]
27 | Ac-FLPLFSKFGSR-NH2 [R1_5–15] | ~5

same assay, conditions: SPR, AMA1 immobilized on CM5 chip, HBS-EP running buffer pH 7.4, no DMSO, 25°C; kinetic 1:1 fit (native R1) or steady-state affinity fit; peptide 10 nM to 10 µM; No binding = no binding event up to 10 µM peptide

Row | Molecule | Equilibrium dissociation constant K D, truncated R1
28 | R1_1–11: truncated R1 analogue, N-terminally acetylated and C-terminally amidated (Ac-VFAEFLPLFSK-NH2) | no detectable binding; also recorded: No binding ^b
29 | R1_5–14: 10-residue truncated R1 peptide, Arg15 deleted (Ac-FLPLFSKFGS-NH2) | abolished measurable binding; also recorded: No binding ^b
30 | R1_11–20: truncated R1 analogue, N-terminally acetylated and C-terminally amidated (Ac-KFGSRMHILK-NH2) | No binding ^b
